Target: human cytoplasmic dynein-1 complex (recombinant, SNAPf tag on the heavy chain) (human) (UniProt Q14204)

B1: human full-length Lissencephaly-1 (LIS1), unlabelled (natural protein)
chain: MVLSQRQRDELNRAIADYLRSNGYEEAYSVFKKEAELDVNEELDKKYAGLLEKKWTSVIRLQKKVMELESKLNEAKEEFTSGGPLGQKRDPKEWIPRPPEKYALSGHRSPVTRVIFHPVFSVMVSASEDATIKVWDYETGDFERTLKGHTDSVQDISFDHSGKLLASCSADMTIKLWDFQGFECIRTMHGHDHNVSSVAIMPNGDHIVSASRDKTIKMWEVQTGYCVKTFTGHREWVRMVRPNQDGTLIASCSNDQTVRVWVVATKECKAELREHEHVVECISWAPESSYSSISEATGSETKKSGKPGPFLLSGSRDKTIKMWDVSTGMCLMTLVGHDNWVRGVLFHSGGKFILSCADDKTLRVWDYKNKRCMKTLNAHEHFVTSLDFHKTAPYVVTGSVDQTVKVWECR
B1 showed a mean duration of plus-end tracking events of dynein on growing microtubules with EB1 and dynactin after addition of LIS1 of 14 s.
